Reference: patent EP2289541A1
One block for each substance: values may come before it.

Biological target: low density lipoprotein receptor-related protein (LRP)
Experiment: cell-based or functional assay
[1] = scale: % of passage versus filter for alteplase alone

- % of abluminal alteplase (alteplase transport across in vitro BBB, zymography assay; alteplase 0.3 µM and DSPAalpha1 0.3 µM) (% of abluminal alteplase alone): 46.6
- alteplase (% of passage versus filter) (alteplase translocation across in vitro BBB, spectrozyme assay; alteplase 0.3 µM and DSPAalpha1 0.3 µM) [1]: 67
Substance: DSPAα1 (Desmoteplase) (from UniProt P98119 37-477) (enzyme)

- % of abluminal alteplase (alteplase transport across in vitro BBB, zymography assay; alteplase 0.3 µM and DSPAalpha 2 0.3 µM) (% of abluminal alteplase alone): 25.1
- alteplase (% of passage versus filter) (alteplase translocation across in vitro BBB, spectrozyme assay; alteplase 0.3 µM and DSPAalpha2 0.3 µM) [1]: 61.9
Substance: DSPAα2 (from UniProt P15638 37-477) (enzyme)

- % of abluminal alteplase (alteplase transport across in vitro BBB, zymography assay; alteplase 0.3 µM and Reteplase 0.3 µM) (% of abluminal alteplase alone): 51.6
Substance: Reteplase (from UniProt P00750 36-562) (enzyme)
